Here are results for three molecules from article PMC12469859 (Structure (London, England : 1993), 2025).

Sequences and labels used below:
B1: Neisseria gonorrhoeae BamC (NgBamC), with the HG2 domain (natural protein, N. gonorrhoeae FA1090, UniProt A0ACH0F7W2 42-398, looked up)
chain: CSGSKTEQPKLDYQSRSHRLIKLEVPPDLNNPDQGNLYRLPAGSGAVRASDLEKRRTPAVQQPADAEVLKSVKGVRLERDGSQRWLVVDGKSPAEIWPLLKAFWQENGFDIESEEPAIGQMETEWAENRAKIPQDSLRRLFDTVGLGGIYSTGERDKFIVRIEQGKNGVSDIFFAHKAMKEVYGDKNKDTTMWQPSASDPNLEAAFLTRFMQYLGVDGRQAENALAKKPTLPAANEMARIEGKSLIVFGDYGRNWRRTGLALDRIGLTVVGQNTERHAFLVQKAPNESNAVTEQKPGLFKRLLGKGKAEKPAEQPELIVYAEPVADGSRIVLLNKDGSAYAGKDASALLGKLHSELR
B2: Neisseria gonorrhoeae BamD (NgBamD) (natural protein, N. gonorrhoeae FA1090, UniProt Q50985 17-267, looked up)
chain: CATQGTADKDAQITQDWSVEKLYAEAQDELNSSNYTRAVKLYEILESRFPTSRHARQSQLDTAYAYYKDDEKDKALAAIERFRRLHPQHPNMDYALYLRGLVLFNEDQSFLNKLASQDWSDRDPKANREAYQAFAELVQRFPNSKYAADATARMVKLVDALGGNEMSVARYYMKRGAYIAAANRAKKIIGSYQNTRYVEESLAILELAYKKLDKPQLAADTRRVLETNFPKSPFLTHAWQPDDMPWWRYWH
B3: Neisseria gonorrhoeae BamA (NgBamA) (natural protein)
chain: FTIQDIRVEGLQRTEPSTVFNYLPVKVGDTYNDTHGSAIIKSLYATGFFDDVRVETADGQLLLTVIERPTIGSLNITGAKMLQNDAIKKNLESFGLAQSQYFNQATLNQAVAGLKEEYLGRGKLNIQITPKVTKLARNRVDIDITIDEGKSAKITDIEFEGNQVYSDRKLMRQMSLTEGGIWTWLTRSDRFDRQKFAQDMEKVTDFYQNNGYFDFRILDTDIQTNEDKTRQTIKITVHEGGRFRWGKVSIEGDTNEVPKAELEKLLTMKPGKWYERQQMTAVLGEIQNRMGSAGYAYSEISVQPLPNAGTKTVDFVLHIEPGRKIYVNEIHITGNNKTRDEVVRRELRQMESAPYDTSKLQRSKERVELLGYFDNVQFDAVPLAGTPDKVDLNMSLTERSTGSLDLSAGWVQDTGLVMSAGVSQDNLFGTGKSAALRASRSKTTLNGSLSFTDPYFTADGVSLGYDIYGKAFDPRKASTSVKQYKTTTAGGGVRMGIPVTEYDRVNFGLAAEHLTVNTYNKAPKRYADFIRKYGKTDGADGSFKGLLYKGTVGWGRNKTDSASWPTRGYLTGVNAEIALPGSKLQYYSATHNQTWFFPLSKTFTLMLGGEVGIAGGYGRTKEIPFFENFYGGGLGSVRGYESGTLGPKVYDEYGEKISYGGNKKANVSAELLFPMPGAKDARTVRLSLFADAGSVWDGRTYTAAENGNNKSVYSENAHKSTFTNELRYSAGGAVTWLSPLGPMKFSYAYPLKKKPEDEIQRFQFQLGTTF

The target in the test is T1, Neisseria gonorrhoeae BamE (NgBamE) with a C-terminal 10x histidine tag (N. gonorrhoeae FA1090, UniProt Q5F5Y8 18-125).
T1 sequence (looked up): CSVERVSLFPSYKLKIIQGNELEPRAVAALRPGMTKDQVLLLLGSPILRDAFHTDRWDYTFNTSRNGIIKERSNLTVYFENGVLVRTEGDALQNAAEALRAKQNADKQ
As to the kind of experiment: co-purification.
For B1, the “stoichiometry N” value was found to be 1.
Then B2, with 1; and B3, with 1.

What is called stoichiometry N is a count of units in the complex or per binding partner.
